Experimental data reported in patent publication US20200138716A1, “COMPOSITIONS AND METHODS FOR INDUCING NANOPARTICLE-MEDIATED MICROVASCULAR EMBOLIZATION OF TUMORS” (Poseida Therapeutics, Inc., priority 2014, published 2020).
Where two headings read alike, the source gives them in different places.

B1: free Mb: free (unencapsulated) myoglobin (protein, UniProt P68082 2-154, looked up)
Myoglobin: GLSDGEWQQVLNVWGKVEADIAGHGQEVLIRLFTGHPETLEKFDKFKHLKTEAEMKASEDLKKHGTVVLTALGGILKKKGHHEAELKPLAQSHATKHKIPIKYLEFISDAIIHVLHSKHPGDFGADAQGAMTKALELFRNDIAAKYKELGFQG
B2: metMb: metmyoglobin, free protein (protein, UniProt P68082 2-154, looked up)
Myoglobin: B1 Myoglobin
modifications: met (ferric) form
notes: metmyoglobin, free protein
B3: oxyMb: oxygenated myoglobin, free protein (protein, UniProt P68082 2-154, looked up)
Myoglobin: B1 Myoglobin
modifications: oxygenated form
notes: oxygenated myoglobin, free protein

Tests used:
[1] = tested on: human umbilical vein endothelial cells (HUVECs); assay: CuFL1A fluorescence, extracellular NO of cultured HUVECs; type: cell-based; settings: for effect of further additions of DEANO on CuFL1A emission: DEANO added; for CuFL1A fluorescence compared to extracellular environment of HUVECs: no DEANO
Method: Cells may be incubated with 1 μM or less, relative to total concentration, of the NO sensor in PBS buffer or a growth medium for imaging. Concentration may be adjusted to reduce the fluorescent signal intensity to desired levels. Imaging of extra-cellular NO may be performed directly in the growth medium for imaging, and images may be taken as often as needed following cell stimulation.
In another example study, pooled 4× passaged human umbilical vein endothelial cells (HUVECs) were grown in Corning Costar 96 well white plates with clear bottoms in EBM-2 media to 80-90% confluence. Half of the free metMb and metPEM suspensions were incubated with sodium sulfate to reduce the myoglobin back to oxyMb form. The free oxyMb and oxyPEM suspensions were then dialyzed for four hours to remove salt. The rest of the original metMb and metPEM suspensions were used as received.
A 4× concentrated FL1A stock solution (10 μM in PBS+gluc+ca+mg/DMSO), a 4× concentrated DEANO stock solution (200 μM in 10 mM NaOH), and a 4× concentrated LNNA stock solution (400 μM in PBS+glu+ca+mg) were prepared so that 50 μL of each was added per well to a final and consistent volume of 200 μL per well.
A 2× concentrated stock solution of metMb (50 mg/mL in PBS+gluc+ca+mg) and 2× concentrated oxyMb (50 mg/mL in PBS+gluc+ca+mg) solution were also prepared. […] Fluorescence readings were obtained from each well following a set 30-minute incubation period with each of the experimental groups.

[2] = CuFL1A fluorescence NO sensor assay in solution; type: biochemical; settings: for CuFL1A fluorescence on addition of DEANO: DEANO added to the solution
Method: In various studies to test these potential mechanisms, PEM may be incubated with a NO probe. […] When non-emissive CuFL1A reacts with NO, Cu(II) is reduced to Cu(I), among other changes, to produce fluorescent FL1A-NO. In this manner, CuFL1A may be used as an NO sensor activated by fluorescence to assess the relative NO levels in solution. In various studies, cultured umbilical vein endothelial cells may be incubated with CuFL1A and either PEM or a control in order to assess changes in NO levels in the extracellular environment. In various studies, luminal chemiluminescence due to the presence of reactive oxygen species may be used to assess the biological consequences of PEM-bound NO promotion of neutrophil activation. The FL1A ligands may be dissolved in spectroscopic grade DMSO to achieve a final concentration of the stock solution of around […]. To determine the exact concentration, the stock solution may be diluted in pH 7 aqueous buffer and the absorbance of the bands at 504 and 499 nm may be measured with E=4.6×104 M-1 cm-1. The absorbance value and dilution factor may be recorded and the exact concentration of the ligand in the stock solution may be calculated. The DMSO stock solution of the metal-free ligand may be aliquoted in 50 μL portions and stored at -80° C. The aliquots may be thawed and the absorbance of the band at 504 or 499 nm may be checked before use. […] The copper complex may be prepared fresh, immediately before cell incubation, using one of the frozen aliquots of the ligand stock solution. […] The unused portion of the solution may be discarded by the end of the day. In an example study, half of the free MetMb and […] suspensions were incubated with sodium sulfate to reduce the myoglobin back to its oxyMb form. The free oxyMb and oxyPEM suspensions were then dialyzed for 4h to remove salt, and the rest of the original metMb and […] suspensions were used as received. […] A 2× concentrated stock solution of metMb (50 mg/mL in PBS) and oxyMb (50 mg/mL in PBS) was prepared. The final concentrations of empty polymersomes, […] and oxyPEM were determined by UV-Vis spectrometry and ICP-OES. The final volume in each well was 200 μL, and therefore 100 μL of each solution was added per well, thus diluting these original stock solutions by half. Fluorescence was measured various time points for each condition.

[3] = background values; cited from earlier work
[4] = Oxygen equilibrium binding curves (Hemox Analyzer, Hill model); settings: 37° C.; partial pressure of O2 at 50% saturation
Method: Oxygen equilibrium binding curves of PEM and free Mb dispersions may be measured using a Hemox™ Analyzer at physiological temperature (37° C.). In brief, samples may be allowed to saturate to a pO2 of 147 mm Hg using compressed air and then deoxygenated using a compressed nitrogen stream. UV-Vis absorbance measurements of oxygenated and deoxygenated samples may be recorded as a function of pO2 via dual wavelength spectroscopy. Oxygen-PEM/myoglobin equilibrium curves may be fit to a four-parameter (A0, A∞, P50, n) Hill model:
in which A0 and A∞ represent the absorbance at 0 mm Hg and at full O2 saturation, respectively. The pO2 represents the partial pressure of O2, and P50 represents the partial pressure of O2 where PEM/Mb is 50% saturated with oxygen. Lastly, ‘n’ represents the cooperativity coefficient of PEM/Mb. […] The lower O2 affinity (higher P50) of PEM than free myoglobin may be attributed to the shielding effect of the polymersome membrane, which was further found to delay the kinetics of O2 binding to PEM.

[5] = tested on: human neutrophils incubated with HUVECs; assay: Luminol chemiluminescence, neutrophil activation on HUVECs; type: cell-based; settings: for generation of reactive oxygen species compared to luminol control: neutrophils with HUVECs, 30 minutes, maximal concentrations (25 mg/mL polymer or protein; metPEM 1.3 mg/mL metMb, 23.5 mg/mL polymer)
Method: (§1) In another example study, similar to the previous study, pooled 4× passaged human umbilical vein endothelial cells (HUVECs) were grown in Corning Costar 96 well white plate with clear bottoms in EBM-2 media to 80-90% confluence. Half of the free metMb and […] suspensions were incubated with sodium sulfate to reduce the myoglobin back to oxyMb form. The free oxyMb and oxyPEM suspensions were then dialyzed for four hours to remove salt. The rest of the original metMb and […] suspensions were used as received. Further, a ficoll-paque density gradient separation was used to purify fresh human neutrophils and re-suspend in media at a concentration of 6×10^6 neutrophils/mL. In the assay, 50 mL aliquots were added per well, with a final volume of 200 μL per well, as in the study above. […] A 2× concentrated stock solution of metMb (50 mg/mL in PBS+gluc+ca+mg) and 2× concentrated stock of oxyMb (50 mg/mL in PBS+gluc+ca+mag) were prepared. The final concentrations of empty polymersome, […], and oxyPEM were determined by UV-Vis spectrometry and ICP-OES. […] Further, 600 μM of a luminol solution in media containing 18.75 μ/mL horseradish peroxidase (HRP) was prepared, with final concentrations in assay wells of around 120 μM luminol and 3.75 μ/mL HRP. […] A luminometor was used to continuously measure instantaneous reactive oxygen species generation after addition of each treatment administered to the HUVECs with and without neutrophils (total assay time 30 minutes). At the end of the study, sample supernatant were aliquoted and the cells were fixed and frozen for future myeloperoxidase assays or MPO ELISAs to look at degranulation.

HUVECs = assay: Luminol chemiluminescence (reactive oxygen species) with HUVECs alone; type: cell-based, human; settings: HUVECs without neutrophils, 30 minutes
Method: as §1, with “received.” for “received. Further, a ficoll-paque density gradient separation was used to purify fresh human neutrophils and re-suspend in media at a concentration of 6×10^6 neutrophils/mL. In the assay, 50 mL aliquots were added per well, with a final volume of 200 μL per well, as in the study above.”

[6] = no DEANO, higher concentrations (e.g. 25 mg/mL metMb)

Molecule	P50 [3]	affinity for oxygen / oxygen tension of release [3]	effect of further additions of DEANO on CuFL1A emission [1]	CuFL1A fluorescence compared to extracellular environment of HUVECs [1]	generation of reactive oxygen species compared to luminol control [5]	generation of reactive oxygen species (luminol chemiluminescence) (HUVECs)	CuFL1A fluorescence on addition of DEANO [2]	CuFL1A fluorescence compared to its intensity in PBS [2, 6]	other results
CCN(CC)/[N+]([O-])=N/O.CCNCC [DEANO, diethylamine NO, reference compound]	–	–	–	–	–	–	–	–	increase in CuFL1A emission in extracellular environment of HUVECs ([1]; 30-minute incubation): ~1.5 fold; CuFL1A fluorescence compared to its intensity in PBS ([2]; solution, no cells): around seven-fold
hemoglobin A: Normal adult hemoglobin A	26.5 mmHg	–	–	–	–	–	–	–	–
hemoglobin: oxygen-transporting protein in human red blood cells	25-50 mmHg	20 to 50 mmHg	–	–	–	–	–	–	–
B1	2.75 mmHg	2 to 3 mmHg	–	–	–	–	–	–	P50 [4]: ~2 mm Hg
B2	–	–	only able to partially mitigate	diminished	no appreciable generation of reactive oxygen species	do not, in and of themselves, result in the generation of reactive oxygen species	the degree of amplification in CuFL1A emission was lower	dramatically reduced	total oxidative burst (integrated luminol chemiluminescence), neutrophil activation ([5]; 30 minute incubation): did not have any effects
B3	–	–	not able to mitigate	diminished	statistically significant increase	do not, in and of themselves, result in the generation of reactive oxygen species	did not augment CuFL1A fluorescence	markedly decreased to baseline values	effect of DEANO addition on neutrophil activation ([5]; DEANO added): did not mitigate the levels of neutrophil activation; CuFL1A fluorescence compared to its intensity in PBS ([2]; no DEANO, low concentrations (metMb up to 5 mg/mL)): greater
